Source: patent US20070238862A1 (published 2007)
No end group written: not given here.

These binders were tested against T1, human ChemerinR (human, UniProt Q99788 3-373) (assay: cell-based or functional assay).
T1 sequence: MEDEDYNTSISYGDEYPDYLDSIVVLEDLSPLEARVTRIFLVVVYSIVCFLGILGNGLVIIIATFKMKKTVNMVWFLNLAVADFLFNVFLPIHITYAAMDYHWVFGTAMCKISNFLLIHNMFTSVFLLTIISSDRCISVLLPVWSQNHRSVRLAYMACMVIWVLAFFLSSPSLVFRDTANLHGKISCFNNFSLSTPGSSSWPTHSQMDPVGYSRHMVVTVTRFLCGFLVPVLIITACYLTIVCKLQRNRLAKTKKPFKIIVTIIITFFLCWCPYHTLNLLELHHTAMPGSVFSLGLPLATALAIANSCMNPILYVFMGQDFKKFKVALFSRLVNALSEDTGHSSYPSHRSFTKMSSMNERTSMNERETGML

| Binder | EC50 (nM), Calcium flux-Aequoscreen assay on ChemerinR expressing cells |
| --- | --- |
| LFPGQFAFS | 66.3 nM |
| IFPGQFAFS | 25.8 nM |
| FLPGQFAFS | 29.1 nM |
| YVPGQFAFS | 43.8 nM |
| YFPGQFAFD-NH2 [YFPGQFAFD-CONH2] | 4.3 nM |
